This note sets out measurements from publication PMC3134789.

Series [1] concerns the target Nova-1 KH2 domain (individual domain). The experiment in a line: SEC.
The target is the same in series [2]. The experiment in a line: AUC.
A further series addresses T1, Nova-1 KH2 (UniProt Q9JKN6 171-237).
T1 sequence: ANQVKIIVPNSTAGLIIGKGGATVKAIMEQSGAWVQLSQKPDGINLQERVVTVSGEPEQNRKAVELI
The experiment in a line: NMR.

The stoichiometry N is a count of units in the complex or per binding partner.

As for “Nova-1 KH2 domain (individual domain) (domain or fragment)”, the stoichiometry N in series [1] and in series [2] was 2 each time.

B1: UCAC tetranucleotide (ssRNA)
RNA: UCAC
Consider B1, for which the binding result with Nova-1 KH2 is listed as “binds”.
